Laboratory results as given in patent US20260167699A1 (Chugai, published 2026).
Positions count from the first letter of the chain named.

How the values were obtained:
Test in all cases: SPR, relative to GpH7-A5/GpH7-B3/GpL16-k0 =100
FcγRIa = target: T1, FcγRIa (human, UniProt P12314 16-292)
T1 construct: extracellular domain; also called 1a

FcγRIIa(R) = target: T2, FcγRIIa(R) (human, UniProt P12318 34-217)
T2 construct: extracellular domain; also called 2aR
T2 sequence: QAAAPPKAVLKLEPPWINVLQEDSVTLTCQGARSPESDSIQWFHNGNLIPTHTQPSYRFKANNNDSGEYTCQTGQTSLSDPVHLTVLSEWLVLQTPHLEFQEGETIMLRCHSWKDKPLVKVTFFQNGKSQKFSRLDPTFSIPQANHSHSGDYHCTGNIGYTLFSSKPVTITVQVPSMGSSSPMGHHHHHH

FcγRIIa(H) = target: T3, FcγRIIa(H) (human, UniProt P12318 34-217)
T3 construct: extracellular domain; also called 2aH
T3 sequence: T2 sequence with R134H

FcγRIIb = target: T4, FcγRIIb (human, UniProt P31994 43-217)
T4 construct: extracellular domain; also called 2b
T4 sequence: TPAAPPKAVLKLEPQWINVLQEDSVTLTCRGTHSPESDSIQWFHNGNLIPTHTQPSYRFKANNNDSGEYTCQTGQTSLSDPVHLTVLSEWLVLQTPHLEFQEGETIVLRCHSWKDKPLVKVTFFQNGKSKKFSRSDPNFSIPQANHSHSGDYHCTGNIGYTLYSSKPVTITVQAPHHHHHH

T1 sequence (P12314 other isoform, or with tags, fused parts or gaps): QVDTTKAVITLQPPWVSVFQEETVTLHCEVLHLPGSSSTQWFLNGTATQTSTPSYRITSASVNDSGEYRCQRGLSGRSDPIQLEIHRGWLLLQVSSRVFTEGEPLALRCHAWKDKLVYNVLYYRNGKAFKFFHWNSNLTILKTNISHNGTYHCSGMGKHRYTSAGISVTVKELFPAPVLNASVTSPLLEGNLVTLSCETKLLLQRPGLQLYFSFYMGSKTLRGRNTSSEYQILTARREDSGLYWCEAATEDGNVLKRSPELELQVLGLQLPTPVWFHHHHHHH

B1: GpH7-A5/GpH7-B3 variant K326_14T/GpL16-k0 (antibody, human IgG1, kappa)
heavy 1: not shown
heavy 2: not shown
light: DIVMTQSPLSLPVTPGEPASISCQASESLVHSNRNTYLHWYLQKPGQSPQLLIYKVSNRFSGVPDRFSGSGSGTDFTLKISRVEAEDVGVYYCSQNTHVPPTFGQGTKVEIERTVAAPSVFIFPPSDEQLKSGTASVVCLLNNFYPREAKVQWKVDNALQSGNSQESVTEQDSKDSTYSLSSTLTLSKADYEKHKVYACEVTHQGLSSPVTKSFNRGEC
notes: He Ab: heterodimerized IgG1, one H chain mutated
FcγRIa
  He/Con 1a: 109%
FcγRIIa(R)
  He/Con 2aR: 128%
FcγRIIa(H)
  He/Con 2aH: 119%
FcγRIIb
  He/Con 2b: 168%

B2: GpH7-A5/GpH7-B3 variant S298_04F/GpL16-k0 (antibody, human IgG1, kappa)
heavy 1: not shown
heavy 2: not shown
light: B1 light
notes: as for B1
FcγRIa
  He/Con 1a: 106%
FcγRIIa(R)
  He/Con 2aR: 80.4%
FcγRIIa(H)
  He/Con 2aH: 75.5%
FcγRIIb
  He/Con 2b: 66.3%

B3: GpH7-A5/GpH7-B3 variant S298_01G/GpL16-k0 (antibody, human IgG1, kappa)
heavy 1: not shown
heavy 2: not shown
light: B1 light
notes: as for B1
FcγRIa
  He/Con 1a: 100%
FcγRIIa(R)
  He/Con 2aR: 94.5%
FcγRIIa(H)
  He/Con 2aH: 71.4%
FcγRIIb
  He/Con 2b: 81.2%

B4: GpH7-A5/GpH7-B3 variant L328_15Y/GpL16-k0 (antibody, human IgG1, kappa)
heavy 1: not shown
heavy 2: not shown
light: B1 light
notes: as for B1
FcγRIa
  He/Con 1a: 104%
FcγRIIa(R)
  He/Con 2aR: 174%
FcγRIIa(H)
  He/Con 2aH: 106%
FcγRIIb
  He/Con 2b: 240%

B5: GpH7-A5/GpH7-B3 variant Q295_01G/GpL16-k0 (antibody, human IgG1, kappa)
heavy 1: not shown
heavy 2: not shown
light: B1 light
notes: as for B1
FcγRIa
  He/Con 1a: 96.1%
FcγRIIa(R)
  He/Con 2aR: 60.3%
FcγRIIa(H)
  He/Con 2aH: 62.5%
FcγRIIb
  He/Con 2b: 51.6%

B6: GpH7-A5/GpH7-B3 variant N325_09D/GpL16-k0 (antibody, human IgG1, kappa)
heavy 1: not shown
heavy 2: not shown
light: B1 light
notes: as for B1
FcγRIa
  He/Con 1a: 105%
FcγRIIa(R)
  He/Con 2aR: 111%
FcγRIIa(H)
  He/Con 2aH: 55.3%
FcγRIIb
  He/Con 2b: 139%

B7: GpH7-A5/GpH7-B3 variant S298_03V/GpL16-k0 (antibody, human IgG1, kappa)
heavy 1: not shown
heavy 2: not shown
light: B1 light
notes: as for B1
FcγRIa
  He/Con 1a: 106%
FcγRIIa(R)
  He/Con 2aR: 82.5%
FcγRIIa(H)
  He/Con 2aH: 83.2%
FcγRIIb
  He/Con 2b: 65.4%

B8: GpH7-A5/GpH7-B3 variant K326_16H/GpL16-k0 (antibody, human IgG1, kappa)
heavy 1: not shown
heavy 2: not shown
light: B1 light
notes: as for B1
FcγRIa
  He/Con 1a: 109%
FcγRIIa(R)
  He/Con 2aR: 115%
FcγRIIa(H)
  He/Con 2aH: 102%
FcγRIIb
  He/Con 2b: 133%

B9: GpH7-A5/GpH7-B3 variant P329_09D/GpL16-k0 (antibody, human IgG1, kappa)
heavy 1: not shown
heavy 2: not shown
light: B1 light
notes: as for B1
FcγRIa
  He/Con 1a: 80.1%
FcγRIIa(R)
  He/Con 2aR: 76%
FcγRIIa(H)
  He/Con 2aH: 57.1%
FcγRIIb
  He/Con 2b: 60.4%

B10: GpH7-A5/GpH7-B3 variant L328_18N/GpL16-k0 (antibody, human IgG1, kappa)
heavy 1: not shown
heavy 2: not shown
light: B1 light
notes: as for B1
FcγRIa
  He/Con 1a: 101%
FcγRIIa(R)
  He/Con 2aR: 76.4%
FcγRIIa(H)
  He/Con 2aH: 80.6%
FcγRIIb
  He/Con 2b: 101%

B11: GpH7-A5/GpH7-B3 variant L328_04F/GpL16-k0 (antibody, human IgG1, kappa)
heavy 1: not shown
heavy 2: not shown
light: B1 light
notes: as for B1
FcγRIa
  He/Con 1a: 100%
FcγRIIa(R)
  He/Con 2aR: 177%
FcγRIIa(H)
  He/Con 2aH: 84.9%
FcγRIIb
  He/Con 2b: 273%

B12: GpH7-A5/GpH7-B3 variant S298_02A/GpL16-k0 (antibody, human IgG1, kappa)
heavy 1: not shown
heavy 2: not shown
light: B1 light
notes: as for B1
FcγRIa
  He/Con 1a: 103%
FcγRIIa(R)
  He/Con 2aR: 87.2%
FcγRIIa(H)
  He/Con 2aH: 74.3%
FcγRIIb
  He/Con 2b: 74.4%

B13: GpH7-A5/GpH7-B3 variant L328_14T/GpL16-k0 (antibody, human IgG1, kappa)
heavy 1: not shown
heavy 2: not shown
light: B1 light
notes: as for B1
FcγRIa
  He/Con 1a: 103%
FcγRIIa(R)
  He/Con 2aR: 153%
FcγRIIa(H)
  He/Con 2aH: 138%
FcγRIIb
  He/Con 2b: 176%

B14: GpH7-A5/GpH7-B3 variant L328_07I/GpL16-k0 (antibody, human IgG1, kappa)
heavy 1: not shown
heavy 2: not shown
light: B1 light
notes: as for B1
FcγRIa
  He/Con 1a: 102%
FcγRIIa(R)
  He/Con 2aR: 160%
FcγRIIa(H)
  He/Con 2aH: 111%
FcγRIIb
  He/Con 2b: 200%

B15: GpH7-A5/GpH7-B3 variant S298_06M/GpL16-k0 (antibody, human IgG1, kappa)
heavy 1: not shown
heavy 2: not shown
light: B1 light
notes: as for B1
FcγRIa
  He/Con 1a: 111%
FcγRIIa(R)
  He/Con 2aR: 104%
FcγRIIa(H)
  He/Con 2aH: 95.8%
FcγRIIb
  He/Con 2b: 103%

B16: GpH7-A5/GpH7-B3 variant S298_08L/GpL16-k0 (antibody, human IgG1, kappa)
heavy 1: not shown
heavy 2: not shown
light: B1 light
notes: as for B1
FcγRIa
  He/Con 1a: 104%
FcγRIIa(R)
  He/Con 2aR: 100%
FcγRIIa(H)
  He/Con 2aH: 83%
FcγRIIb
  He/Con 2b: 110%

B17: GpH7-A5/GpH7-B3 variant L328_03V/GpL16-k0 (antibody, human IgG1, kappa)
heavy 1: not shown
heavy 2: not shown
light: B1 light
notes: as for B1
FcγRIa
  He/Con 1a: 103%
FcγRIIa(R)
  He/Con 2aR: 150%
FcγRIIa(H)
  He/Con 2aH: 116%
FcγRIIb
  He/Con 2b: 157%

B18: GpH7-A5/GpH7-B3 variant K326_18N/GpL16-k0 (antibody, human IgG1, kappa)
heavy 1: not shown
heavy 2: not shown
light: B1 light
notes: as for B1
FcγRIa
  He/Con 1a: 110%
FcγRIIa(R)
  He/Con 2aR: 110%
FcγRIIa(H)
  He/Con 2aH: 113%
FcγRIIb
  He/Con 2b: 118%

B19: GpH7-A5/GpH7-B3 variant S298_07I/GpL16-k0 (antibody, human IgG1, kappa)
heavy 1: not shown
heavy 2: not shown
light: B1 light
notes: as for B1
FcγRIa
  He/Con 1a: 104%
FcγRIIa(R)
  He/Con 2aR: 86.2%
FcγRIIa(H)
  He/Con 2aH: 84.9%
FcγRIIb
  He/Con 2b: 71.5%

B20: GpH7-A5/GpH7-B3 variant L328_13S/GpL16-k0 (antibody, human IgG1, kappa)
heavy 1: not shown
heavy 2: not shown
light: B1 light
notes: as for B1
FcγRIa
  He/Con 1a: 101%
FcγRIIa(R)
  He/Con 2aR: 150%
FcγRIIa(H)
  He/Con 2aH: 146%
FcγRIIb
  He/Con 2b: 186%

B21: GpH7-A5/GpH7-B3 variant K326_15Y/GpL16-k0 (antibody, human IgG1, kappa)
heavy 1: not shown
heavy 2: not shown
light: B1 light
notes: as for B1
FcγRIa
  He/Con 1a: 111%
FcγRIIa(R)
  He/Con 2aR: 131%
FcγRIIa(H)
  He/Con 2aH: 102%
FcγRIIb
  He/Con 2b: 179%

B22: GpH7-A5/GpH7-B3 variant L328_16H/GpL16-k0 (antibody, human IgG1, kappa)
heavy 1: not shown
heavy 2: not shown
light: B1 light
notes: as for B1
FcγRIa
  He/Con 1a: 98.5%
FcγRIIa(R)
  He/Con 2aR: 106%
FcγRIIa(H)
  He/Con 2aH: 84.5%
FcγRIIb
  He/Con 2b: 100%

B23: GpH7-A5/GpH7-B3 variant K326_19Q/GpL16-k0 (antibody, human IgG1, kappa)
heavy 1: not shown
heavy 2: not shown
light: B1 light
notes: as for B1
FcγRIa
  He/Con 1a: 108%
FcγRIIa(R)
  He/Con 2aR: 124%
FcγRIIa(H)
  He/Con 2aH: 106%
FcγRIIb
  He/Con 2b: 156%

B24: GpH7-A5/GpH7-B3 variant L328_02A/GpL16-k0 (antibody, human IgG1, kappa)
heavy 1: not shown
heavy 2: not shown
light: B1 light
notes: as for B1
FcγRIa
  He/Con 1a: 101%
FcγRIIa(R)
  He/Con 2aR: 150%
FcγRIIa(H)
  He/Con 2aH: 154%
FcγRIIb
  He/Con 2b: 180%

B25: GpH7-A5/GpH7-B3 variant L328_06M/GpL16-k0 (antibody, human IgG1, kappa)
heavy 1: not shown
heavy 2: not shown
light: B1 light
notes: as for B1
FcγRIa
  He/Con 1a: 101%
FcγRIIa(R)
  He/Con 2aR: 148%
FcγRIIa(H)
  He/Con 2aH: 122%
FcγRIIb
  He/Con 2b: 176%

B26: GpH7-A5/GpH7-B3 variant L328_19Q/GpL16-k0 (antibody, human IgG1, kappa)
heavy 1: not shown
heavy 2: not shown
light: B1 light
notes: as for B1
FcγRIa
  He/Con 1a: 104%
FcγRIIa(R)
  He/Con 2aR: 115%
FcγRIIa(H)
  He/Con 2aH: 103%
FcγRIIb
  He/Con 2b: 131%

B27: GpH7-A5/GpH7-B3 variant N325_13S/GpL16-k0 (antibody, human IgG1, kappa)
heavy 1: not shown
heavy 2: not shown
light: B1 light
notes: as for B1
FcγRIa
  He/Con 1a: 102%
FcγRIIa(R)
  He/Con 2aR: 137%
FcγRIIa(H)
  He/Con 2aH: 83%
FcγRIIb
  He/Con 2b: 198%

B28: GpH7-A5/GpH7-B3 variant P329_10E/GpL16-k0 (antibody, human IgG1, kappa)
heavy 1: not shown
heavy 2: not shown
light: B1 light
notes: as for B1
FcγRIa
  He/Con 1a: 81.4%
FcγRIIa(R)
  He/Con 2aR: 72.7%
FcγRIIa(H)
  He/Con 2aH: 57.6%
FcγRIIb
  He/Con 2b: 59.5%

B29: GpH7-A5/GpH7-B3 variant K326_20W/GpL16-k0 (antibody, human IgG1, kappa)
heavy 1: not shown
heavy 2: not shown
light: B1 light
notes: as for B1
FcγRIa
  He/Con 1a: 108%
FcγRIIa(R)
  He/Con 2aR: 125%
FcγRIIa(H)
  He/Con 2aH: 86.7%
FcγRIIb
  He/Con 2b: 166%
